Experimental data taken from the RNAGym collection of RNA variant scans (doi:10.7554/elife.80360).

B1: HDV Ribozyme (parent)
chain: GGCCGGCAUGGUCCCAGCCUCCUCGCUGGCGCCGGCUGGGCAACAUUCCGAGGGGACCGUCCCCUCGGUAAUGGCGAAUGGGACCCA

Variants of: B1
Test: self-cleavage, relative activity (ratio to wild type); higher = more cleavage; co-transcriptional

Variant | self-cleavage
A71U G76C | 0.914
A71U G76A | 0.932
G73C G80U | 0.141
U72G A77U | 0.185
A70U G73U | 0.169
A70U G73A | 0.614
A71C A78U | 0.147
G73U G74A | 0.172
A71C G74C | 0.128
A71C G74A | 0.453
A71G A77G | 0.88
A71G A77U | 0.764
U72C C86U | 0.57
U72C C86A | 0.712
G74A A77C | 0.231
G73C A87U | 0.626
U72A G76C | 0.65
U72A G76U | 0.863
A71U G81U | 0.185
A71U G81C | 0.345
U72A A87G | 0.452
U72A A87U | 0.729
U72A A87C | 0.81
A71U A83G | 0.677

Variant | self-cleavage
A71U A83C | 0.391
G73U C75G | 0.086
U72A A78U | 0.161
U72A A78G | 0.504
G74U G80A | 0.0845
G74U G80C | 0.164
U72A G74C | 0.339
G73A G82U | 0.151
G73A G82A | 0.18
G73U G82U | 0.224
G73U G82C | 0.157
G73U C84G | 0.329
G73U C84A | 0.158
C75G A78G | 0.222
C75G A78U | 0.0462
C75G A78C | 0.151
G73U G76U | 0.212
A71C C75G | 0.131
A71C C75U | 0.199
A71C C75A | 0.0852
G73C G82C | 0.175
G73C G82A | 0.175
G73C G82U | 0.0707
G73C A83U | 0.348

Variant | self-cleavage
G73C A83G | 0.17
G73C A83C | 0.264
G74U A78G | 0.185
G74C U79A | 0.189
G74C U79G | 0.302
G74C U79C | 0.181
A71G G81A | 0.475
A71G G81C | 0.131
U72A A83C | 0.219
U72A A83U | 0.166
U72A A83G | 0.318
G73A U79G | 0.248
G73A U79A | 0.231
G73A U79C | 0.186
A71C A83C | 0.229
A71C A83U | 0.297
A71C A83G | 0.582
A71U C85U | 1.17
U72A G80C | 0.219
U72A G80A | 0.169
A70G G82C | 0.259
U72G G81A | 0.302
U72G G81U | 0.178
C75G | 0.159

Variant | self-cleavage
C75A | 0.171
G74A G76C | 0.464
G73C G81U | 0.259
A71U G74C | 0.244
C75A A78U | 0.0852
G73A C75A | 0.246
U72G C85U | 0.644
U72A C84A | 0.639
G74U C85A | 0.415
A71G A83G | 1.09
U72C G82C | 0.26
U72C G82U | 0.145
U72C G82A | 0.248
C75G G80U | 0.104
C75G G80A | 0.11
C75A C84G | 0.0707
G73C C85A | 0.231
G74U A83G | 0.256
G74U A83C | 0.271
G73A A77C | 0.161
C75G G82C | 0.271
U72C A78C | 0.229
G73U A78C | 0.173
G73U A78G | 0.332

Variant | self-cleavage
G73U A78U | 0.119
G74U G81A | 0.211
U72G A83U | 0.166
U72G A83G | 0.58
U72A A77C | 0.199
G73C C75G | 0.0573
G73C C75A | 0.173
A70U A78G | 0.7
A70U A78U | 0.404
C75A U79C | 0.0707
A71C G73U | 0.141
A71C G73C | 0.378
C75A A83C | 0.181
C75A A83G | 0.0567
C75A A83U | 0.151
G74C A83U | 0.185
G74C A83C | 0.295
A71U U72G | 0.684
G73A G80A | 0.0652
G73A G80C | 0.165
G73A G80U | 0.153
A70U C75G | 0.231
A70U C75A | 0.0898
A70U C75U | 0.219

Variant | self-cleavage
G73U G80A | 0.0839
G73A G76U | 0.906
A71G | 0.957
A71C | 0.84
A71U | 0.93
G74U A87C | 0.554
G74U A87G | 0.473
G74A C75G | 0.17
G74A C75A | 0.0528
C75A G80C | 0.18
C75A G80U | 0.118
C75A G80A | 0.12
G74C G76U | 0.175
G74C G76C | 0.185
G74C G76A | 0.208
U72A C85U | 0.764
U72A C85A | 0.399
U72A C85G | 0.831
U72C G73U | 0.272
A71U G73A | 0.432
U72A C86A | 0.79
G73C C86A | 0.641
A70U G80C | 0.213
A70U G80A | 0.445

Variant | self-cleavage
A70U G82A | 0.469
A70U G82C | 0.35
A70U G82U | 0.567
U72C C84U | 0.284
C75G C86A | 0.147
G74U G82U | 0.281
G74U G82C | 0.0723
C75A G81A | 0.151
U72G G76A | 0.743
C75A A77U | 0.119
C75A A77C | 0.237
C75A G82A | 0.151
A71C C84A | 0.511
A71C C84U | 0.604
G73A A78C | 0.265
G73A C85A | 0.882
G73A C85U | 0.73
C75A G76C | 0.166
U72G G74A | 0.431
A71U U79A | 0.782
A71U U79C | 0.314
G73A A87U | 0.803
G73A A87G | 0.697
